# Results taken from patent US20250228976A1 (BROAD INSTITUTE, published 2025).
# Where a chain is given by its changes, count along the chain named.
# B1: AAV-BI98 (other)
# chain: MAADGYLPDWLEDNLSEGIREWWALKPGAPQPKANQQHQDNARGLVLPGYKYLGPGNGLDKGEPVNAADAAALEHDKAYDQQLKAGDNPYLKYNHADAEFQERLKEDTSFGGNLGRAVFQAKKRLLEPLGLVEEAAKTAPGKKRPVEQSPQEPDSSAGIGKSGAQPAKKRLNFGQTGDTESVPDPQPIGEPPAAPSGVGSLTMASGGGAPVADNNEGADGVGSSSGNWHCDSQWLGDRVITTSTRTWALPTYNNHLYKQISNSTSGGSSNDNAYFGYSTPWGYFDFNRFHCHFSPRDWQRLINNNWGFRPKRLNFKLFNIQVKEVTDNNGVKTIANNLTSTVQVFTDSDYQLPYVLGSAHEGCLPPFPADVFMIPQYGYLTLNDGSQAVGRSSFYCLEYFPSQMLRTGNNFQFSYEFENVPFHSSYAHSQSLDRLMNPLIDQYLYYLSRTINGSGQNQQTLKFSVAGPSNMAVQGRNYIPGPSYRQQRVSTTVTQNNNSEFAWPGASSWALNGRNSLMNPGPAMASHKEGEDRFFPLSGSLIFGKQGTGRDNVDADKVMITNEEEIKTTNPVATESYGQVATNHQSAQYSRLNMNAQAQTGWVQNQGILPGMVWQDRDVYLQGPIWAKIPHTDGNFHPSPLMGGFGMKHPPPQILIKNTPVPADPPTAFNKDKLNSFITQYSTGQVSVEIEWELQKENSKRWNPEIQYTSNYYKSNNVEFAVNTEGVYSEPRPIGTRYLTRNL
# notes: Engineered AAV capsid tested as assembled virus particles; entry is full VP1; also called AAV-B198
# B2: AAV-BI100 (other)
# chain: B1 chain with Y589V, S590H, N593Q, M594D, N595K
# notes: Engineered AAV capsid tested as assembled virus particles; entry is full VP1
# B3: AAV-BI101 (other)
# chain: B1 chain with S590H, N593S, M594N
# notes: as for B2
# B4: AAV-BI99 (other)
# chain: B1 chain with M594K, N595D
# notes: as for B2
# B5: AAV-BI102 (other)
# chain: B1 chain with Y589L, S590H, R591A, N593S, M594H
# notes: as for B2
# B6: AAV-BI19 (other)
# chain: B1 chain with L592I, N593G, M594P
# notes: Engineered AAV capsid, tested as assembled genome-packaging virus particles; VP2 and VP3 come from the same cap gene
# Target: T1, human Transferrin Receptor (TFRC) (human, UniProt P02786 1-760)
# T1 construct: whole, on cells; also called hTFRC; huTfR1
# T1 sequence (P02786 whole entry): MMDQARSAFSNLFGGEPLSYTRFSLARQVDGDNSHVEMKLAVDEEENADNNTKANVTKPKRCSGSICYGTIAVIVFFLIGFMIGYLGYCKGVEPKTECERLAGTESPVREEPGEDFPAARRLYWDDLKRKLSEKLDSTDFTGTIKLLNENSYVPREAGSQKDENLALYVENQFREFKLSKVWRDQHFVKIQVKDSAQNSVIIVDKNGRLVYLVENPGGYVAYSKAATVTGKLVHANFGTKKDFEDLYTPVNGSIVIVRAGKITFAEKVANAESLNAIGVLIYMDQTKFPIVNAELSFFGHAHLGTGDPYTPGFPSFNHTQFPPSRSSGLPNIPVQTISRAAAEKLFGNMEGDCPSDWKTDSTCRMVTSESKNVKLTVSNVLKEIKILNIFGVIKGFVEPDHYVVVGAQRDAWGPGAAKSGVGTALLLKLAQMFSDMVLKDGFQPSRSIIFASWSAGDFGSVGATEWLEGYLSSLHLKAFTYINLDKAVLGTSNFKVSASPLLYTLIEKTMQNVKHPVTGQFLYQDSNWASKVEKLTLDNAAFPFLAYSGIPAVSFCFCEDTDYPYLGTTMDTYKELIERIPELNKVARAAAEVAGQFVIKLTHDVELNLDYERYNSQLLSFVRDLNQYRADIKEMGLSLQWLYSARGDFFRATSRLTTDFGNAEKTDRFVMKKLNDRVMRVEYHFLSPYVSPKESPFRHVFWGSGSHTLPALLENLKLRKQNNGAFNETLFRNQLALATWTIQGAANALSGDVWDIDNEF
# Assay: binding of AAV to CHO or hCMEC cells expressing human TFRC, relative to AAV9
row,Binder,binding result
1,B1,binds
2,B2,binds
3,B3,binds
4,B4,binds
5,B5,binds

# Target: T2, marmoset TfR1 (marmoset, UniProt U3FHF5 1-760)
# T2 construct: whole, on cells; also called marmoset TFRC; marTFRC
# Assay: qPCR of cell-bound vector genomes, CHO cells stably expressing TfR1, 4 C, 1 h
row,Binder,binding result
1,B1,"no binding (tested: 3,000 vg/cell)"
2,B3,"no binding (tested: 3,000 vg/cell)"
3,B4,"no binding (tested: 3,000 vg/cell)"
4,B6,"no binding (tested: 3,000 vg/cell)"

# Target: T3, mouse TfR1 (mouse, UniProt Q62351 1-763)
# T3 construct: whole, on cells; also called mouse TFRC; mouse Tfrc
# T3 sequence (Q62351 whole entry): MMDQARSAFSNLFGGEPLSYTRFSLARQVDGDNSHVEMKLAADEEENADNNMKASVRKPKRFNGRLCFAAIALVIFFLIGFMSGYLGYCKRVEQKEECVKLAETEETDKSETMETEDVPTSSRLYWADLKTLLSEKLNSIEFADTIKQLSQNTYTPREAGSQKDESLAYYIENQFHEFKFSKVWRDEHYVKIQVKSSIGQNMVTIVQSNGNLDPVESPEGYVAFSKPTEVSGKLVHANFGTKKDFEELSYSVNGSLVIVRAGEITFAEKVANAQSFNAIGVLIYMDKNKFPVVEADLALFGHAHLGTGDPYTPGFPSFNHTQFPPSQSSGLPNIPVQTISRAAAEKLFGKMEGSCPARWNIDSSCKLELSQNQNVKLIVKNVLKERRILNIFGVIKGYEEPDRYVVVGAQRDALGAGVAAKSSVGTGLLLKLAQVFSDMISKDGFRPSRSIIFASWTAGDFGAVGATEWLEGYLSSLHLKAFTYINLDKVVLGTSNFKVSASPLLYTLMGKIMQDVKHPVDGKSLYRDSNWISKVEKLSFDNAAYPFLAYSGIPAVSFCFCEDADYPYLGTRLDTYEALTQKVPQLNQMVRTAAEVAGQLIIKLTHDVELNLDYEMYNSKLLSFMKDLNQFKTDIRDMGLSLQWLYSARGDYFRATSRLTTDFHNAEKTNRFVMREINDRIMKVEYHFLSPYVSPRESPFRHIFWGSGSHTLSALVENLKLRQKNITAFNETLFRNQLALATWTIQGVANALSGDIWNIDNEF
# Assay: as above
row,Binder,binding result
1,B1,"no binding (tested: 3,000 vg/cell)"
2,B3,"no binding (tested: 3,000 vg/cell)"
3,B4,"no binding (tested: 3,000 vg/cell)"
4,B6,"no binding (tested: 3,000 vg/cell)"

# Target: T4, macaque TfR1 (rhesus macaque, UniProt I0FKY7 1-760)
# T4 construct: whole, on cells; also called macTfR1; rhesus macaque TFRC
# Assay: as above
row,Binder,binding result
1,B1,"no binding (tested: 3,000 vg/cell)"
2,B3,"no binding (tested: 3,000 vg/cell)"
3,B4,"no binding (tested: 3,000 vg/cell)"
4,B6,"no binding (tested: 3,000 vg/cell)"

# Target: T1, human Transferrin Receptor (TFRC)
# Assay: legend of the 2-step in vivo transduction assay (human TFRC expressed in mouse brain endothelium)
row,Binder,binding result
1,B6,binds
